The labels stand for the following.
B1: α-CD28 + β-41BB (Linker GGS) (TCR)
TCR alpha: KQEVTQIPAALSVPEGENLVLNCSFTDSAIYNLQWFRQDPGKGLTSLLLIQSSQREQTSGRLNASLDKSSGRSTLYIAASQPGDSATYLCAVRPLYGGSYIPTFGRGTSLIVHPYIQNPDPAVYQLRDSKSSDKSVCLFTDFDSQTNVSQSKDSDVYITDKCVLDMRSMDFKSNSAVAWSNKSDFACANAFNNSIIPEDTFFPSPESSCDVKLVEKSFETDTNLNFQNLSVIGFRILLLKVAGFNLLMTLRLWSSGGSRSKRSRLLHSDYMNMTPRRPGPTRKHYQPYAPPRDFAAYRS
TCR beta: NAGVTQTPKFQVLKTGQSMTLQCAQDMNHEYMSWYRQDPGMGLRLIHYSVGAGITDQGEVPNGYNVSRSTTEDFPLRLLSAAPSQTSVYFCASSYVGNTGELFFGEGSRLTVLEDLKNVFPPEVAVFEPSEAEISHTQKATLVCLATGFYPDHVELSWWVNGKEVHSGVCTDPQPLKEQPALNDSRYCLSSRLRVSATFWQNPRNHFRCQVQFYGLSENDEWTQDRAKPVTQIVSAEAWGRADCGFTSESYQQGVLSA
B2: α-CD28 + β (Linker GGS) (TCR)
TCR alpha: B1 TCR alpha
TCR beta: B1 TCR beta
B3: α-CD28 + β-CD28 (Linker GGS) (TCR)
TCR alpha: B1 TCR alpha
TCR beta: NAGVTQTPKFQVLKTGQSMTLQCAQDMNHEYMSWYRQDPGMGLRLIHYSVGAGITDQGEVPNGYNVSRSTTEDFPLRLLSAAPSQTSVYFCASSYVGNTGELFFGEGSRLTVLEDLKNVFPPEVAVFEPSEAEISHTQKATLVCLATGFYPDHVELSWWVNGKEVHSGVCTDPQPLKEQPALNDSRYCLSSRLRVSATFWQNPRNHFRCQVQFYGLSENDEWTQDRAKPVTQIVSAEAWGRADCGFTSESYQQGVLSATILYEILLGKATLYAVLVSALVLMAMVKRKDSRGGGSRSKRSRLLHSDYMNMTPRRPGPTRKHYQPYAPPRDFAAYRS

This test has as its target Alexa Fluor 647-labeled NY-ESO-1-MHC tetramer. In words: flow cytometry of transfected Jurkat NFAT-luciferase cells stained with Alexa Fluor 647-labeled NY-ESO-1-MHC tetramer; x axis Alexa 647-A; Empty Vector gate 0.46. Background: Flow cytometry measures light scatter and fluorescence of single cells or particles in a stream.
As to B1, the NYESO+ was 52.3%.
The molecule B2 returned an NYESO+ of 64.5%.
The figure for B3 is 53.6%.
